Results taken from patent publication US20210261685A1 (Alector, published 2021).

What was measured:
[1] = molecular target: T1, human MerTK endogenously expressed on cells (SK-MEL-5 cells; human macrophages) (human, UniProt Q12866 21-999); assay: cell-based or functional assay
T1 sequence: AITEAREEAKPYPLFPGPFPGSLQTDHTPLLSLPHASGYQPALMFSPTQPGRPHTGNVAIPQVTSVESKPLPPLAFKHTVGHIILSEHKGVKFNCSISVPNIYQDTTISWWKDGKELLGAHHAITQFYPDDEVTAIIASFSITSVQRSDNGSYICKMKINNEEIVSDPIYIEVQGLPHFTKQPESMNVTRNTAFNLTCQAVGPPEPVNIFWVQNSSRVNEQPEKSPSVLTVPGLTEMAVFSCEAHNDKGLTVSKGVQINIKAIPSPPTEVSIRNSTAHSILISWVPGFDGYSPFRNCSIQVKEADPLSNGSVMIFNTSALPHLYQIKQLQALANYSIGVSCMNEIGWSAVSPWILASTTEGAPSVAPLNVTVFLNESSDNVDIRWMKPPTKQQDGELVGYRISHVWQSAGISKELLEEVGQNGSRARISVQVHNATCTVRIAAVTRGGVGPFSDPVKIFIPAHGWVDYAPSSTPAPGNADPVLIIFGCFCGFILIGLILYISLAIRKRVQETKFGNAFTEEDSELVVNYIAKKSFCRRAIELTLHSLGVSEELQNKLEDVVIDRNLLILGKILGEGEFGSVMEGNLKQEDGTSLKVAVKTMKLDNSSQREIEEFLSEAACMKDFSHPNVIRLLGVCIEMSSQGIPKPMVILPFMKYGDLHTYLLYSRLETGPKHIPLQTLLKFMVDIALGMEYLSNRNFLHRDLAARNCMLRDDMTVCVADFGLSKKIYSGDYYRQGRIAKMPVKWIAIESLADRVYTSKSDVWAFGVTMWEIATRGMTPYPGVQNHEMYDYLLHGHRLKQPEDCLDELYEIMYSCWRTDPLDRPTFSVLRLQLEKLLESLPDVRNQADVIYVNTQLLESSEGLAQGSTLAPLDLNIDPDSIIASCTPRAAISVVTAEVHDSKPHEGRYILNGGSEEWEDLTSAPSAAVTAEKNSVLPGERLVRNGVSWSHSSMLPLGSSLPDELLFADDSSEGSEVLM

[2] = molecular target: T2, cyno MerTK extracellular domain (ECD), recombinant (cynomolgus monkey, UniProt Q12866 21-505 (human entry)); assay: SPR, Carterra LSA
T2 construct: also called cynomolgus MerTK; not shown: polyHis tag or TEVS/Thrombin/murine IgG2a Fc tag
T2 chain: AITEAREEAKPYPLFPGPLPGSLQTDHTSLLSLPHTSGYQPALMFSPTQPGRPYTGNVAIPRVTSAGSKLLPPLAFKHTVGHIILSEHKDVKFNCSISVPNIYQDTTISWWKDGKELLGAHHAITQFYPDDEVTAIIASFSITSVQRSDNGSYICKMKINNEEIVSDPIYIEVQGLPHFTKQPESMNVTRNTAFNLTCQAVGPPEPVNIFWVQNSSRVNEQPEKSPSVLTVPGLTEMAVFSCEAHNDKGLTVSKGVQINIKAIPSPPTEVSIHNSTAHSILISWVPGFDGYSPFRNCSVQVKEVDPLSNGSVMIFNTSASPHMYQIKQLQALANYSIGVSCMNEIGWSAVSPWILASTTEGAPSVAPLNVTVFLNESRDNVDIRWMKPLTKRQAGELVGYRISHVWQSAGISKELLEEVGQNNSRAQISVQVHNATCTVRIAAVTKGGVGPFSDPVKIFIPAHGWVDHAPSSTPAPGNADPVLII

[3] = molecular target: T3, Recombinant human MerTK human Fc Chimera protein (R&D systems, Cat #391-MR-100) (human, UniProt Q12866 26-499, limits assumed); assay: competition ELISA, His-ProS on captured MerTK-Fc
T3 construct: Bought; also called recombinant human MerTK protein; MerTK-Fc
T3 sequence: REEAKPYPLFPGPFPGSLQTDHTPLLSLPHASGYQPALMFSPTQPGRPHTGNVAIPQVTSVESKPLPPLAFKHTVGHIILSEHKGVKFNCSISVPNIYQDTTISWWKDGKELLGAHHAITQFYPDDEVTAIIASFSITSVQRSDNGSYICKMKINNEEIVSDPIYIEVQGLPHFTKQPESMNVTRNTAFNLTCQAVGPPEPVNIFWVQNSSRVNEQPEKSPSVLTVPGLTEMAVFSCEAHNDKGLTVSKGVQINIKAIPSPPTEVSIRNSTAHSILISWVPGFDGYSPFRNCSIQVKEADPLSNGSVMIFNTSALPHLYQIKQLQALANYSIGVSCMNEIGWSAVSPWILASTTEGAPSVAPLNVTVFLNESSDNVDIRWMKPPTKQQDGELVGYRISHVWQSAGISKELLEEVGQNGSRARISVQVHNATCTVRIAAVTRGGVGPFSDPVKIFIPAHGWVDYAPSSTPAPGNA
Method: Rabbit anti-human IgG polyclonal antibody (Jackson ImmunoResearch, Cat #309-005-008) was captured to a high-protein binding plate at 2 μg/ml 4° C. overnight. After washing with 0.05% Tween20 in PBS three times, 5% BSA in PBS was added for 1 hour. Recombinant human MerTK human Fc Chimera protein (R&D systems, Cat #391-MR-100) was added at 2 μg/ml for 1 hour and the plates were then washed. Anti-MerTK antibodies were titrated to final concentration range of between 66.6 nM to 4 pM and then 40 μl of serially diluted antibody and 40 μl of His tag-conjugated recombinant Gas6 protein (R&D systems, Cat #885-GSB-050) at 3 μg/ml or His tag-conjugated recombinant ProS protein (R&D systems, Cat #9489-PS-100) at 20 μg/ml. After a further incubation for 1 hour, plates were washed and incubated for 1 hour with HRP-conjugated anti-6×His tag antibody (Abcam, Cat #ab1187). Plates were then washed and an HRP substrate (TMB) was used to develop the plates. After sufficient color change was observed, the reaction was stopped by adding 50 μl 2N H₂SO₄ and the OD was measured using a spectrophotometer (BioTek).
From these experiments, IC50 values [nM] were determined using OD450 values obtained from the dose-response curves analyzed with Prism software. Table 14 and Table 15 show IC50 values determined for anti-MerTK antibody blocking of Gas6 ligand binding and ProS ligand binding to MerTK. […] Dashes indicate lack of significant blocking; “n.a.” indicates data not available.

- Gas6-mediated pAKT activity, average IC50, human M2c macrophages [1]: 1.67 nM
- binding result [2]: binds
- IC50 [3]: 7.84 nM
B1: MTK-09 (antibody, human IgG1, V domains shown)
VH: QVQLQQSGAELVRPGASVKISCKAFGYTFTNHHIKWVKQRPGQGLDWIGYIDPYNDYTTYNQNFKGKATLTVDKSSSTAYMELSSLTSEDSAVYYCARRAYDGYYVDWYFDVWGAGTTVTVSS
VL: DIVMTQSHKFMSTSVGDRVSITCKASQDVTTSVAWYHQKPGQSPELLIYSASYRYTGVPDRFTGSGSGTDFTFTISSVQAEDLAIYYCQQHYSTPLTFGSGTKLQLK
